Residue numbers refer to the chain shown, from its start.
T1: ΔCRD3-TNFR2 protein (with CRD3 deletion), on CHO-S cells (human, UniProt P20333 23-461)
T1 construct: also called CHO-SΔCRD3-TNFR2; TNFR2 lacking CRD3
T1 sequence: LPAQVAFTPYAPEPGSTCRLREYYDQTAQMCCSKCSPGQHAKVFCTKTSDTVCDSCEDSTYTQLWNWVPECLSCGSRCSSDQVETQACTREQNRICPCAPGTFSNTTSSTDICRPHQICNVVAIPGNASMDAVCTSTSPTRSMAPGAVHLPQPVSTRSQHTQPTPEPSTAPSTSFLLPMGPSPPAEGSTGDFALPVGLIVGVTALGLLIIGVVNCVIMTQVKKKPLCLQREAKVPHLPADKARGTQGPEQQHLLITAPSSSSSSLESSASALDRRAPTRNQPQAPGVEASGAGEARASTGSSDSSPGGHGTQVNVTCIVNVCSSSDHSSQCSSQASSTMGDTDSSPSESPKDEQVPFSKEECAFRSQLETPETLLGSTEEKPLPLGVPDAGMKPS

T2: ΔCRD4-TNFR2 protein (with CRD4 deletion), on CHO-S cells (human, UniProt P20333 23-461)
T2 construct: also called CHO-SΔCRD4-TNFR2; TNFR2 lacking CRD4
T2 sequence: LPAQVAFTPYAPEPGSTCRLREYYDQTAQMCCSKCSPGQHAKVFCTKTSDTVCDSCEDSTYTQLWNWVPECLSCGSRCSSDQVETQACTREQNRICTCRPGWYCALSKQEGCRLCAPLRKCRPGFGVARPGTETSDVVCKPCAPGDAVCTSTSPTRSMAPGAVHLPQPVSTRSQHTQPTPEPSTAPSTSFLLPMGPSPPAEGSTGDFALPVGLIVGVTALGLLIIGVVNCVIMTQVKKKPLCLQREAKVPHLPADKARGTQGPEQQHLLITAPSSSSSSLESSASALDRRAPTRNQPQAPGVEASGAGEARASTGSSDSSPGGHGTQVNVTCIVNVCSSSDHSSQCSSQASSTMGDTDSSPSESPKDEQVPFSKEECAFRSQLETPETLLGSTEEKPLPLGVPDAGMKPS

T3: His-tagged monkey (Crab-eating monkey) TNFR2 (Sino Biological, Cat #: 90102-C08H) (monkey (Crab-eating monkey), UniProt P20333 27-257 (human entry))
T3 construct: Bought protein; also called fTNFR2-His; not shown: His tag
T3 chain: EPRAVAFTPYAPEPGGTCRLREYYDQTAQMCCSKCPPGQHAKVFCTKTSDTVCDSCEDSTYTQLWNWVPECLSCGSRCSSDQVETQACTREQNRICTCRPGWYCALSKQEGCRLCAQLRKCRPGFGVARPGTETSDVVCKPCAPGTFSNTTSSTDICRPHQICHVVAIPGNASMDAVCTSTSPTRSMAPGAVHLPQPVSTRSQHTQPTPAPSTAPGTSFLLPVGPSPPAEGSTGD

T4: His-tagged human TNFR2 (Human TNFR2/CD120b/TNFRSF1B Protein, His Tag, Acrobiosystems Cat #: TN2-5227) (human, UniProt P20333 23-257)
T4 construct: Bought protein; also called hTNFR2-His; Recombinant human TNFR2 proteins with His-tag; not shown: His tag
T4 sequence: T3 chain with E1L, R3A, A4Q, G16S, P36S, Q117P, H164N, A210E, G216S, V223M

B1: BC-1A8-IgG1 (antibody, V domains shown)
VH: QVQLQQSGPGLVKPSQTLSLTCAISGDSVSSNSAAWNWIRQSPSRGLEWLGRTYYRSKWYNDYALSVKSRITINPETSKNQFSLQLNSVTPEDTAVYYCAREDGVGGTKDYFDYWGQGTLVTVSS
VL: DIQMTQSPSSLSASVGDRVTITCQASQDIDNYLNWYQQKPGKAPKLLIYDVSNLEIGVPSRFSGSGSGTDFTFTISSLQPEDIATYYCQQYDNLPLTFGQGTRLEIK
notes: Fully human VH/VL joined to the human IgG1 subtype, kappa light chain (RenMab mice)
B2: BC-1F4-IgG1 (antibody, V domains shown)
VH: B1 VH with N32D, A34S, A64T, L65V, E76D
VL: B1 VL with D30S, V51A, I56T, S76N, I83F, Y87F, L96I
notes: Human VH/VL joined to the human IgG1 subtype
B3: BC-1C3-IgG1 (antibody, V domains shown)
VH: QVQLVESGGGVVHPGKSLRLSCAASGFTFNIYGMHWVRQAPGKGLEWVALISYDGNDKYFADSVKGRFTISRDNSKNTLYLQMNSLRAEDTAVYYCAKAVDTAVVTFFDYWGQGTLVTVSS
VL: EIVMTQSPVTLSVSPGERATLSCRASQSVSSNLAWYQQKPGQAPRLLIYSASTRATGIPARFSGSGSGTEFTLTISSLQSEDLAVYYCQQYSNWPFTFGPGTKVDIK
notes: as for B2
B4: BC-1F10-IgG1 (antibody, V domains shown)
VH: QVQLQQWGAGLLKPSETLSLICAVYDGSFSGDYWSWIRQPPGKGLEWIGEINHSGSTNYNPSLKSRVTISVDTSKNQFSLKLSSVTAADTAVYYCARGHWNYDYYYGMDVWGQGTTVTVSS
VL: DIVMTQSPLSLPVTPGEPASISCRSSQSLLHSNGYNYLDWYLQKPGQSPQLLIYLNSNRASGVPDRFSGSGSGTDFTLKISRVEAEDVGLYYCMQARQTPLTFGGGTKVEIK
notes: as for B2
B5: BC-1B6-IgG1 (antibody, V domains shown)
VH: QVQLVESGGGVVQPGRSLRLSCAASGFTFSNFGMHWVRQAPGKGLEWVAVIWYEGSDKYYADSVKGRFTISRDNSKNTLYLQMNSLRAEDTAVYYCARDSSWGFLLYGMDVWGQGTTVTVSS
VL: DVVMTQSPLSLPVTLGQPASISCRSSRSLEYSDGNTYLNWFQQRPGQSPRRLIYKVSNRDSGVPDRFSGSGSGTAFTLKISGVEAEDVGVYYCMQGTHWPPTFGGGTKVEIK
notes: as for B2

target: T1, ΔCRD3-TNFR2 protein (with CRD3 …); assay: FACS on CHO-S cells with ΔCRD3-TNFR2, AF647 anti-human IgG Fc secondary
Text: (§1) TNFR2 has four cysteine rich domains (CRD). In another experiment, FACS was used to detect the binding of anti-hTNFR2 antibodies to TNFR2 proteins with different structural domains. Secondary antibody (Alexa Fluor® 647 AffiniPure F(ab′) 2 Fragment Goat Anti-Human IgG, Fcγ fragment specific, Jackson ImmunoResearch Laboratories, Inc., Cat #: 151524) was used. The fluorescence-labeled secondary antibody can attach to the Fc region of the anti-hTNFR2 antibodies so that the anti-hTNFR2 antibodies that are bound to the ΔCRD cells can be detected by FACS. Specifically, ΔCRD1-TNFR2 protein (with CRD1 deleteion), ΔCRD2-TNFR2 protein (with CRD2 deleteion), ΔCRD3-TNFR2 protein (with CRD3 deleteion) or ΔCRD4-TNFR2 protein (with CRD4 deleteion) were expressed in CHO-S cells respectively, and then the binding between the cells and different anti-hTNFR2 antibodies was detected.

Row | positive rate of binding (% of cells) [%] | Binder
1 | 0.52 | B1
2 | 0.47 | B2
3 | 0.81 | B3
4 | 23.1 | B4

target: T2, ΔCRD4-TNFR2 protein (with CRD4 …); assay: FACS on CHO-S cells with ΔCRD4-TNFR2, AF647 anti-human IgG Fc secondary
Text: as §1

Row | positive rate of binding (% of cells) [%] | Binder
5 | 29.4 | B1
6 | 21.3 | B2
7 | 1.85 | B3
8 | 38.3 | B4

Target: T3, His-tagged monkey (Crab-eating monkey) …
Assay: SPR Biacore 8K, antibody captured on Protein A chip, fTNFR2-His as analyte
Protocol: (§2) Purified anti-TNFR2 antibodies were diluted to 1 μg/mL and then injected into the Biacore 8K biosensor at 10 μL/min for about 50 seconds to achieve a desired protein density (e.g., about 50 response units (RU)). […] Dissociation was monitored for 600 seconds. The chip was regenerated after the last injection of each titration with Glycine (pH 2.0, 30 μL/min for 30 seconds).
Similar to the aforementioned binding affinity experiment, the binding affinities of the anti-TNFR2 antibodies BC-1B6-IgG1, BC-1C3-IgG1 and BC-1F4-IgG1 to His-tagged monkey (Crab-eating monkey) TNFR2 (fTNFR2-His, Sino Biological, Cat #: 90102-C08H) were measured.

Row | Kd [nM] | koff [s⁻¹] | kon [M⁻¹ s⁻¹] | Binder
9 | 20.1 | 0.0109 | 541000 | B2
10 | 17.5 | 0.00547 | 313000 | B5
11 | 118 | 0.0221 | 187000 | B3

target: T4, His-tagged human TNFR2 (Human …); assay: SPR Biacore 8K, antibody captured on Protein A chip, hTNFR2-His as analyte, 1:1 model
Protocol: The binding affinity of the anti-TNFR2 antibodies to human TNFR2 and TNFR1 (Tumor necrosis factor receptor 1) were measured using surface plasmon resonance (SPR) using Biacore (Biacore, INC, Piscataway NJ) 8K biosensor equipped with pre-immobilized Protein A sensor chips.
as §2

Row | Kd [nM] | koff [s⁻¹] | kon [M⁻¹ s⁻¹] | Binder
12 | 1.36 | 0.00126 | 924000 | B1
13 | 2.21 | 0.00159 | 718000 | B2
14 | 3.89 | 0.00644 | 1.66e+06 | B5
15 | 9.5 | 0.00115 | 121000 | B3
16 | 5.1 | 0.000467 | 91500 | B4

— patent US20250019454A1 (BIOCYTOGEN PHARMACEUTICALS BEIJING, published 2025)
